Biological target: T1, UHRF2 SRA domain (human, UniProt Q96PU4 419-648)
T1 sequence: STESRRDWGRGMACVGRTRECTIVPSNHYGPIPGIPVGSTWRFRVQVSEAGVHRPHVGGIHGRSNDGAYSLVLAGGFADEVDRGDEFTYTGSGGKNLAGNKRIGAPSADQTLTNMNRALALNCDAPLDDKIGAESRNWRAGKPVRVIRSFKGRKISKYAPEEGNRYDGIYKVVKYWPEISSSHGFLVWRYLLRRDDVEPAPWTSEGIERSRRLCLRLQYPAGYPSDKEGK
Test: EMSA; 0.5 uM DNA; preferred over mC and unmodified DNA in the same context; 20 mM HEPES pH 7.9, 100 mM NaCl, 2 mM MgCl2, 2 mM DTT, 0.1% NP-40, 5% glycerol; 30 min on ice; 6% PAGE in 0.25X TBE, GelRed stain
Conditions: protein: recombinant; tags: His; blunt

B1: TET-disf-hmC/TET-disf-rev (dsDNA)
DNA 1: GAAGCTGGGACGCGCGCCGGGAGAGTGCAA
DNA 2: TTGCACTCTCCCGGCGCGCGTCCCAGCTTC
modifications: 5hmC at position 15 of strand 1 (hemihydroxymethylated CpG)
- binding result: binds
